“And” between values parts separate entries of the source, which are not always exact repeats. Equal entries are not always repeated.
Experiments:
[1] = target: LrtA protein of Synechocystis sp. PCC 6803 (Synechocystis sp. PCC 6803); experiment: SEC; Superose 12 10/300 GL, 50 mM Tris pH 8.0, 0.7 M NaCl, 97 uM LrtA (protomer units) loaded in 100 uL, 25 °C; calibrated with blue dextran, albumin, RNase A
[2] = target: LrtA protein of Synechocystis sp. PCC 6803 (Synechocystis sp. PCC 6803); experiment: cross-linking; glutaraldehyde 1% final, 97 uM LrtA (protomer units), 50 mM Tris pH 8.0, 0.5 M NaCl, room temperature; aliquots on 12% SDS-PAGE

stoichiometry N [1]: 6 and 12 | stoichiometry N [2]: 2
Substance: LrtA protein of Synechocystis sp. PCC 6803 (natural protein)

From article PMC6073757
